According to the supplement of paper PMC7125110:
± gives the standard error. Fewer inactive variants are shown than the library holds.

B1: glmS ribozyme (parent)
chain: AUAAAAGCGCCAGAACUACAGAAAUGUAGUUGACGAGGAGGAGGUUUAUCGAAUUUUCGGCGGAUGCCUCCAAA

What was measured:
Conditions in all cases: with glucosamine-6-phosphate
glucosamine-6-phosphate [1] = variants of: B1; assay: self-cleavage kobs at 160 uM GlcN6P; higher = faster cleavage; RNA array
How it was run: (§1)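 On sequenced MiSeq chips, barcoded ribozyme variants were made in situ by E. coli RNA polymerase and followed at 37 °C through a hybridised Cy3 probe. Glucosamine-6-phosphate was flowed in at 40 μM to 10 mM in HEPES/KCl/Mg(OAc)2 buffer. Exponential fits to normalised per-tile medians gave kobs, and weighted Michaelis–Menten fits gave kcat and KM.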

glucosamine-6-phosphate [2] = variants of: B1; assay: self-cleavage kobs at 640 uM GlcN6P; higher = faster cleavage; RNA array
How it was run: as §1

glucosamine-6-phosphate [3] = variants of: B1; assay: self-cleavage kobs at 2500 uM GlcN6P; higher = faster cleavage; RNA array
How it was run: as §1

glucosamine-6-phosphate [4] = variants of: B1; assay: self-cleavage kobs at 10000 uM GlcN6P; higher = faster cleavage; RNA array
How it was run: as §1

Variant | self-cleavage kobs at 160 uM GlcN6P (glucosamine-6-phosphate [1]) [s⁻¹] | self-cleavage kobs at 640 uM GlcN6P (glucosamine-6-phosphate [2]) [s⁻¹] | self-cleavage kobs at 2500 uM GlcN6P (glucosamine-6-phosphate [3]) [s⁻¹] | self-cleavage kobs at 10000 uM GlcN6P (glucosamine-6-phosphate [4]) [s⁻¹]
G13U G37A A53C G60U C67G | < 1e-05 | < 1e-05 | < 1e-05 | 
U31A A64U | < 1e-05 |  |  | 4.44e-05 ± 1.1e-05
A12U G29A A53G G62A | < 1e-05 | < 1e-05 | < 1e-05 | 
C16G G51U G60C | < 1e-05 | < 1e-05 | < 1e-05 | 
A14C A23C G43C | < 1e-05 | < 1e-05 | < 1e-05 | 
A14C G66A C71U | 0.000171 ± 5.4e-05 | 0.000399 ± 9.8e-05 | 0.00114 ± 0.00023 | 
A14C C50G | 5.43e-05 ± 1.5e-05 | 0.000625 ± 0.00028 | 4.32e-05 ± 1.3e-05 | 
U31G G51C U57C | < 1e-05 | < 1e-05 | < 1e-05 | 
A15C C61U A64U | < 1e-05 |  |  | 
G32U A48U G60A | < 1e-05 |  |  | 
A12U G41C A52U G59A G60U | < 1e-05 |  | < 1e-05 | 
A15U G38U G59U | < 1e-05 |  |  | 
U31C G32C C70G | 0.000701 ± 0.0003 |  | 0.000104 ± 2.4e-05 | 
A15C U31G U69G | 4.96e-05 ± 2e-05 | 0.000378 ± 9.2e-05 |  | 
C16U U47A A53G U54A | 0.00109 ± 0.00027 | 0.00231 ± 0.00054 | 0.00464 ± 0.00094 | 
U30C G43C C68G | 7.51e-05 ± 2.2e-05 |  |  | 
A15C U31C A39U A42C | < 1e-05 |  |  | 
A14C A42C C70G | < 1e-05 |  |  | 
A14G A33C U46G C58U G59U | < 1e-05 | < 1e-05 | < 1e-05 | 
C16G G35C A39G G60U C61U C68U C71A | < 1e-05 | < 1e-05 | < 1e-05 | 
G32U G51U A53U G66U C71U | < 1e-05 | < 1e-05 | < 1e-05 | 
A15U G32U A36G G43U U65A C67U | < 1e-05 | < 1e-05 |  | 
C16A G60C C67G | < 1e-05 |  | < 1e-05 | 
A15G U47G C68G | 0.000236 ± 8.5e-05 |  | 3e-05 ± 1.3e-05 | 
A14U U45A U46A | 0.00056 ± 0.00015 |  | 0.00178 ± 0.00057 | 
U30C G32U C34G C50G | 7.22e-05 ± 2.9e-05 | 8.64e-05 ± 3.3e-05 | 9.31e-05 ± 2.4e-05 | 

Variant | self-cleavage kobs at 160 uM GlcN6P (glucosamine-6-phosphate [1]) [s⁻¹] | self-cleavage kobs at 640 uM GlcN6P (glucosamine-6-phosphate [2]) [s⁻¹] | self-cleavage kobs at 2500 uM GlcN6P (glucosamine-6-phosphate [3]) [s⁻¹] | self-cleavage kobs at 10000 uM GlcN6P (glucosamine-6-phosphate [4]) [s⁻¹]
A14C A36G C58U | < 1e-05 |  |  | 
A15G U55A G62U G63C | < 1e-05 | < 1e-05 |  | 
A14C U55G C67U | 0.00016 ± 4.2e-05 | 0.000309 ± 9.8e-05 | 0.000399 ± 0.00015 | 
A12G G35U A42C A48C U57C | < 1e-05 |  |  | 
G32A U49C C61A | < 1e-05 |  |  | 
C16A G29C C58U | < 1e-05 |  |  | 
G13C A36U | < 1e-05 | < 1e-05 | < 1e-05 | < 1e-05
G13C C58G | < 1e-05 |  |  | 
G13C G40U G59C | < 1e-05 | < 1e-05 | < 1e-05 | 
A14U G35C U49G | < 1e-05 |  |  | 
G32C U47A G62C A64G | < 1e-05 | < 1e-05 | < 1e-05 | 
U30A G38U U65G C68G | 0.000204 ± 4.9e-05 | 0.000139 ± 4.3e-05 | 0.000149 ± 4.5e-05 | 7.88e-05 ± 1.5e-05
A15C C34A | < 1e-05 | < 1e-05 | < 1e-05 | < 1e-05
U31C C58A A64C | < 1e-05 |  | < 1e-05 | 
A15C U30A | 0.000667 ± 0.00019 | 0.00307 ± 0.00075 | 0.0188 ± 0.0047 | 0.0299 ± 0.015
G32C G35A | < 1e-05 | < 1e-05 | < 1e-05 | < 1e-05
G13C A52G C70G | 0.000297 ± 0.00012 | 0.000164 ± 5.2e-05 | 7.21e-05 ± 3e-05 | 
G29C A36U G43C | < 1e-05 | < 1e-05 |  | 
C16U G40C U49C G51A | < 1e-05 | < 1e-05 | < 1e-05 | 
C16G A36U | < 1e-05 | < 1e-05 | < 1e-05 | 
A14C C50G C70G | 0.000127 ± 3.4e-05 | 0.000437 ± 0.00014 | 0.000126 ± 3.1e-05 | 7.94e-05 ± 1.8e-05
A14G G35U G66U | < 1e-05 | < 1e-05 |  | 
A15U A33G U47G U54G C67U C71A | 0.000235 ± 8.9e-05 | 0.000303 ± 8.2e-05 |  | 
A15U A52U C58A C70U | < 1e-05 |  |  | 
G13U C34G | < 1e-05 | < 1e-05 | < 1e-05 | < 1e-05
G32C G38A C50G | 0.000156 ± 5.3e-05 | 0.000119 ± 3e-05 | 8.89e-05 ± 2.7e-05 | 
